Measurements published in paper PMC6965647.

Target: heat shock protein 90 (human (endogenous in brain tissue)) (UniProt P07900)
Experiment: native gel or EMSA; human brain homogenates (AD and ND) on 4–10% native gradient gel at 4 °C, immunoblot

stoichiometry N: 2
Substance: heat shock protein 90 (from UniProt P07900 1-732) (natural protein)
